Biological target: I-E^k (mouse MHC class II molecule, α- and β-subunits, six-histidine-tagged) (mouse)
Assay: peptide exchange induced by ultraviolet irradiation

Q: How did the percent of Lys99ANP–I-E^k converted into Cy3-labeled MCC–I-E^k turn out when “MCC peptide labeled with indocarbocyanine (Cy3)” was run?
A: 30%

From paper PMC3645478
